Laboratory results as given in paper PMC6824469.
Residue numbers refer to the chain shown, from its start.

B1: substrate-4 (RNA-4/Cy5 DNA) (DNA:RNA)
DNA 1: GGCACCAACACAAAACACATCTACACUCAACAAUCACUUU
DNA 2: GTAGATGTGTTTTGTGTTGGTGCC
modifications: DNA at nt 17-24 of strand 1 (proximal end of duplex)
B2: substrate-5 (RNA-5/Cy5 DNA) (DNA:RNA)
RNA: B1 DNA 1 with T20U, T22U
DNA: GTAGATGTGTTTTGTGTTGGTGCC
modifications: DNA at nt 9-16 of strand 1 (middle of duplex)
B3: substrate-1 (RNA-1/Cy5 DNA) (DNA:RNA)
RNA: GGCACCAACACAAAACACAUCUACACUCAACAAU
DNA: GTAGATGTGTTTTGTGTTGGTGCC

Target: Prp43p (rPrp43p);Ntr1p (1-120) (Saccharomyces cerevisiae (budding …, UniProt P53131;Q06411 1-767;1-120, |))
Experiment: EMSA

Prp43p (rPrp43p);Ntr1p (1-120) (Saccharomyces cerevisiae, sequence (P53131 whole entry, chain 1 of 2): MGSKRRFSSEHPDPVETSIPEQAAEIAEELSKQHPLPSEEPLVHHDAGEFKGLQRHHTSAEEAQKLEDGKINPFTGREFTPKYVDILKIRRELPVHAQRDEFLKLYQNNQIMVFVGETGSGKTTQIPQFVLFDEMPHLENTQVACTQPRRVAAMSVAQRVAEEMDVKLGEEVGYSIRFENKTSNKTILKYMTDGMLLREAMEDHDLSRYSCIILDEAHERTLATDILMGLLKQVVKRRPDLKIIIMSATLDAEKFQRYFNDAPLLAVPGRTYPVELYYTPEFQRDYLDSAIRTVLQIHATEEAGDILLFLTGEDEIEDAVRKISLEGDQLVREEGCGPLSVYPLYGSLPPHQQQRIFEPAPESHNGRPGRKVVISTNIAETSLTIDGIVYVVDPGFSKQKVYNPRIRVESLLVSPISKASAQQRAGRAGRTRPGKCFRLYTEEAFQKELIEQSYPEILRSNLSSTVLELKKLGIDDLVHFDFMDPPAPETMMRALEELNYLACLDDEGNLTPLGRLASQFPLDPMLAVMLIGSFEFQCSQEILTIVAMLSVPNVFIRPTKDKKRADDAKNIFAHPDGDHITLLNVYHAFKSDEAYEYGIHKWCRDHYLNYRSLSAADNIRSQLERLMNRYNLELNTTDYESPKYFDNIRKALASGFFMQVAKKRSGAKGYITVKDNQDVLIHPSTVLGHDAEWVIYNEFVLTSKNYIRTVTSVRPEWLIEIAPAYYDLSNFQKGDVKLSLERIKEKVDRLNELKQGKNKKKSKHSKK
Prp43p (rPrp43p);Ntr1p (1-120) (Saccharomyces cerevisiae, sequence (Q06411 1-120, chain 2 of 2): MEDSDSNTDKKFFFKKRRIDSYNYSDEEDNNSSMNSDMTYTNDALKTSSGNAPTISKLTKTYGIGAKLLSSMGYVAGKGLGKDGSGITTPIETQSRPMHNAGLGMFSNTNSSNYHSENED

Binding result, binds:
B1
B2
B3
